From US9322042B2, “Thermostable cellulases, and mutants thereof, capable of hydrolyzing cellulose in ionic liquid” (The Regents of the University of California, priority 2009, dated 2016)

Test: Beta-1,4-endoglucanase (CMCase) activity assay of Cel5ATm mutants
Assay type: biochemical
Method: CMCase activity assay is carried out in 50 mM Bis-Tris-HCl buffer (pH 6.5) containing 1% carboxylmethylcellulose (CMC) and incubated at 75° C. for 30 min. Reducing sugars are analyzed by DNS method as described in Xiao Z, Storms R and Tsang A (2005) “Microplate-based carboxymethylcellulose assay for endoglucanase activity”, Anal. Biochem. 342: 176-178. Cellobiose is used as reducing sugars standard. 1 U is defined as enzyme amount to produce 1 μmol reducing sugars in one minute at optimal conditions.
5 μl supernatant is mixed with 35 μl sterile ddH2O and 40 μl 2% CMC in 100 mM Bis-Tris-HCl (pH 6.5) in 96-well PCR plates. These plates are incubated in thermocyclers at 75° C. for 30 min. 80 μl of DNS reagent is added (Ref 1), mixed and incubated at 95° C. for 5 min. The solution is cooled to 4° C. and transferred 100 μl of the products into 96-well plate for reading the ABS at 540 nm.
Clones from the mutant library are analyzed as described for the wild-type of Cel5ATm except that after transferring normal cultures into autoinduction medium, normal culture plates are added by sterile glycerol to 10%, mixed and stored at −80° C. for future investigation. The clones with endoglucanase activity larger than 120% of the wild-type are selected to express the enzymes in 5 ml culture and purified by Ni-NTA columns. Activity improvements are confirmed by detection of their specific activity (U/mg) and plasmids sequencing.

| Molecule | improvement of cellulase activity over the wild-type T. maritima cellulase |
| --- | --- |
| P2H8: T. maritima Cel5A cellulase mutant with D40N and L231R; SEQ ID NO: 2 (protein, listed as Thermotoga maritima) MGVDPFERNKILGRGINIGNALEAPNEGDWGVVIKDEFFNIIKEAGFSHVRIPIRWSTHAYAFPPYKIMDRFFKRVDEVINGALKRGLAVVINIHHYEELMNDPEEHKERFLALWKQIADRYKDYPETLFFEILNEPHGNLTPEKWNELLEEALKVIRSIDKKHTIIIGTAEWGGISALEKLSVPKWEKNSIVTIHYYNPFEFTHQGAEWVEGSEKWLGRKWGSPDDQKHRIEEFNFIEEWSKKNKRPIYIGEFGAYRKADLESRIKWTSFVVREMEKRRWSWAYWEFCSGFGVYDTLRKTWNKDLLEALIGGDSIE | about 40.56% |
| P4B5: T. maritima Cel5A cellulase mutant with K155N; SEQ ID NO: 4 (protein, listed as Thermotoga maritima) MGVDPFERNKILGRGINIGNALEAPNEGDWGVVIKDEFFDIIKEAGFSHVRIPIRWSTHAYAFPPYKIMDRFFKRVDEVINGALKRGLAVVINIHHYEELMNDPEEHKERFLALWKQIADRYKDYPETLFFEILNEPHGNLTPEKWNELLEEALNVIRSIDKKHTIIIGTAEWGGISALEKLSVPKWEKNSIVTIHYYNPFEFTHQGAEWVEGSEKWLGRKWGSPDDQKHLIEEFNFIEEWSKKNKRPIYIGEFGAYRKADLESRIKWTSFVVREMEKRRWSWAYWEFCSGFGVYDTLRKTWNKDLLEALIGGDSIE | about 33.02% |
| P15B10: T. maritima Cel5A cellulase mutant with D29V and I92F; SEQ ID NO: 7 (protein, listed as Thermotoga maritima) MGVDPFERNKILGRGINIGNALEAPNEGVWGVVIKDEFFDIIKEAGFSHVRIPIRWSTHAYAFPPYKIMDRFFKRVDEVINGALKRGLAVVFNIHHYEELMNDPEEHKERFLALWKQIADRYKDYPETLFFEILNEPHGNLTPEKWNELLEEALKVIRSIDKKHTIIIGTAEWGGISALEKLSVPKWEKNSIVTIHYYNPFEFTHQGAEWVEGSEKWLGRKWGSPDDQKHLIEEFNFIEEWSKKNKRPIYIGEFGAYRKADLESRIKWTSFVVREMEKRRWSWAYWEFCSGFGVYDTLRKTWNKDLLEALIGGDSIE | about 33.79% |
| P1E3: T. maritima Cel5A cellulase mutant with E98A and E106D; SEQ ID NO: 1 (protein, listed as Thermotoga maritima) MGVDPFERNKILGRGINIGNALEAPNEGDWGVVIKDEFFDIIKEAGFSHVRIPIRWSTHAYAFPPYKIMDRFFKRVDEVINGALKRGLAVVINIHHYAELMNDPEDHKERFLALWKQIADRYKDYPETLFFEILNEPHGNLTPEKWNELLEEALKVIRSIDKKHTIIIGTAEWGGISALEKLSVPKWEKNSIVTIHYYNPFEFTHQGAEWVEGSEKWLGRKWGSPDDQKHLIEEFNFIEEWSKKNKRPIYIGEFGAYRKADLESRIKWTSFVVREMEKRRWSWAYWEFCSGFGVYDTLRKTWNKDLLEALIGGDSIE | about 31.77% |
| P8E4: T. maritima Cel5A cellulase mutant with A113V; SEQ ID NO: 5 (protein, listed as Thermotoga maritima) MGVDPFERNKILGRGINIGNALEAPNEGDWGVVIKDEFFDIIKEAGFSHVRIPIRWSTHAYAFPPYKIMDRFFKRVDEVINGALKRGLAVVINIHHYEELMNDPEEHKERFLVLWKQIADRYKDYPETLFFEILNEPHGNLTPEKWNELLEEALKVIRSIDKKHTIIIGTAEWGGISALEKLSVPKWEKNSIVTIHYYNPFEFTHQGAEWVEGSEKWLGRKWGSPDDQKHLIEEFNFIEEWSKKNKRPIYIGEFGAYRKADLESRIKWTSFVVREMEKRRWSWAYWEFCSGFGVYDTLRKTWNKDLLEALIGGDSIE | about 49.06% |
| P15H11: T. maritima Cel5A cellulase mutant with S177R; SEQ ID NO: 22 (protein, listed as Thermotoga maritima) MGVDPFERNKILGRGINIGNALEAPNEGDWGVVIKDEFFDIIKEAGFSHVRIPIRWSTHAYAFPPYKIMDRFFKRVDEVINGALKRGLAVVINIHHYEELMNDPEEHKERFLALWKQIADRYKDYPETLFFEILNEPHGNLTPEKWNELLEEALKVIRSIDKKHTIIIGTAEWGGIRALEKLSVPKWEKNSIVTIHYYNPFEFTHQGAEWVEGSEKWLGRKWGSPDDQKHLIEEFNFIEEWSKKNKRPIYIGEFGAYRKADLESRIKWTSFVVREMEKRRWSWAYWEFCSGFGVYDTLRKTWNKDLLEALIGGDSIE | about 35.98% |
| P3D7: T. maritima Cel5A cellulase mutant with E308K; SEQ ID NO: 3 (protein, listed as Thermotoga maritima) MGVDPFERNKILGRGINIGNALEAPNEGDWGVVIKDEFFDIIKEAGFSHVRIPIRWSTHAYAFPPYKIMDRFFKRVDEVINGALKRGLAVVINIHHYEELMNDPEEHKERFLALWKQIADRYKDYPETLFFEILNEPHGNLTPEKWNELLEEALKVIRSIDKKHTIIIGTAEWGGISALEKLSVPKWEKNSIVTIHYYNPFEFTHQGAEWVEGSEKWLGRKWGSPDDQKHLIEEFNFIEEWSKKNKRPIYIGEFGAYRKADLESRIKWTSFVVREMEKRRWSWAYWEFCSGFGVYDTLRKTWNKDLLKALIGGDSIE | about 78.76% |
| P13F6: T. maritima Cel5A cellulase mutant with E132D, N140S, E202K and K304N; SEQ ID NO: 6 (protein, listed as Thermotoga maritima) MGVDPFERNKILGRGINIGNALEAPNEGDWGVVIKDEFFDIIKEAGFSHVRIPIRWSTHAYAFPPYKIMDRFFKRVDEVINGALKRGLAVVINIHHYEELMNDPEEHKERFLALWKQIADRYKDYPETLFFDILNEPHGSLTPEKWNELLEEALKVIRSIDKKHTIIIGTAEWGGISALEKLSVPKWEKNSIVTIHYYNPFKFTHQGAEWVEGSEKWLGRKWGSPDDQKHLIEEFNFIEEWSKKNKRPIYIGEFGAYRKADLESRIKWTSFVVREMEKRRWSWAYWEFCSGFGVYDTLRKTWNNDLLEALIGGDSIE | about 68.51% |
| P15G2: T. maritima Cel5A cellulase mutant with K35N, E209G and A256T; SEQ ID NO: 8 (protein, listed as Thermotoga maritima) MGVDPFERNKILGRGINIGNALEAPNEGDWGVVINDEFFDIIKEAGFSHVRIPIRWSTHAYAFPPYKIMDRFFKRVDEVINGALKRGLAVVINIHHYEELMNDPEEHKERFLALWKQIADRYKDYPETLFFEILNEPHGNLTPEKWNELLEEALKVIRSIDKKHTIIIGTAEWGGISALEKLSVPKWEKNSIVTIHYYNPFEFTHQGAGWVEGSEKWLGRKWGSPDDQKHLIEEFNFIEEWSKKNKRPIYIGEFGTYRKADLESRIKWTSFVVREMEKRRWSWAYWEFCSGFGVYDTLRKTWNKDLLEALIGGDSIE | about 66.92% |
